Tests used:
HeLa cells = assay: Cyclin C localization in stressed HeLa cells; assay type: cell-based, human
Procedure: (FIG. 14A) cyclin C localization in H2O2 stressed cultures as indicated. See (FIG. 14B) for enlarged images for 6 hr+H2O2 cells. (FIG. 14C) Knockdown efficiency of cyclin C by siRNA. con=scrambled siRNA control. Annexin V studies in the cultures described in (FIG. 14D). Graph illustrates % annexin V positive cells for cells with and without Cyclin C siRNA knockdown in the presence or absence of H2O2. Error bars=s.e.m. Three independent cultures were assayed for each sample.
(§1) Cells were cultured on coverslips then fixed with 4% paraformaldehyde for 20 min, permeabilized with 0.2% Triton X-100 for 15 min, blocked with 2% BSA, and incubated with antibodies as indicated. The cells were mounted with DAPI-containing medium (Vector Labs) and the images were acquired with Nikon Eclipse 90i microscope equipped with a Retiga Exi CCD camera and NIS software for data analysis. DAPI (5 μg/ml) and Mitotracker Red (5 μg/ml) staining was used to identify nuclear and mitochondrial subcellular localization.
(§2) To evaluate the role of cyclin C in PCD execution, CCNC specific siRNAs were used to knockdown cyclin C. The knockdown efficiency was about 70% compared to control (FIG. 14C).

[1] = tested on: Drp1 phosphorylation at the activating serine (Ser616); assay: Drp1 Ser616 phosphorylation in Hela cells subjected to H2O2; assay type: cell-based, human
Text: (§3) For phosphorylation, both inhibitory and stimulatory modifications have been identified. For example, cyclin B-Cdk1 phosphorylation at the G2/M boundary stimulates Drp1 activity to induce fission to promote mitochondrial partitioning during mitosis. This modification is clearly observed in cells arrested at the G2/M boundary following addition of the microtubule destabilizing agent nocodazole. Therefore, one possibility is that cytoplasmic cyclin C is now free to interact with another Cdk to modify Drp1 and induce fission. However, no increase was found in Drp1 phosphorylation at the activating serine (Ser616) in Hela cells subjected to H2O2 or in permeabilized CCNC^−/−MEF cells treated with GST-cyclin C. […] It is possible that the accelerated fission in these experiments results in de-phosphorylation of Ser616 helping attenuate mitochondrial fragmentation.

[2] = tested on: MCF-7 breast cancer cell line; assay: Cyclin C localization in stressed MCF-7 cells; assay type: cell-based, human; settings: H2O2 0.4 mM for 4 h
Procedure: (§4) (FIG. 15A) cyclin C localization was followed in MCF-7 or MCF-10A cells exposed to H2O2 (0.4 mM) for 4 h. (FIG. 15B) cyclin C levels were monitored by Western blot in MCF-7 cells treated with (+) or without (−) CCNC specific siRNAs. β-tubulin levels were followed as a loading control. (FIG. 15C) Viability was measured (viable stain assays) in the cell lines described in (FIG. 15B) following 4 h H2O2 exposure as indicated.
as §1, §2

MCF-10A cells = assay: Cyclin C localization and mitochondrial fission in stressed MCF-10A cells; assay type: cell-based, human; settings: H2O2 0.4 mM for 4 h
Procedure: as §4, §1, §2

[3] = molecular target: T1, cyclin C-Med13 interaction (Mus musculus, UniProt Q5SWW4); assay: Cyclin C localization and mitochondrial morphology in MEF cells incubated with TAT-HAD or control peptide (indirect immunofluorescence); assay type: cell-based
T1 construct: endogenous in cells; host or cells: wild type (CCNC+/+) mouse embryonic fibroblasts, SV40 T antigen immortalized
Procedure: The amino terminal sequences of cyclin C from the indicated organisms. Homologies are shaded. Boxed region is targeted using the HIV TAT basic domain fused to the 19 amino acid (aa) peptide indicated by the line above the sequence. (FIG. 11B) Representative images of MEF cells incubated with TAT-HAD peptide or control (25 μM) for three hours then fixed and stained for the nucleus (DAPI), mitochondria (MitoTracker Red) and cyclin C (α-cyclin C). Arrows indicate regions of interaction between cyclin C and mitochondria.
as §1
CCNC^+/+ and CCNC^−/− MEF cells were treated with 0.4 mM H2O2 for 4 hrs. Mitochondrial morphology was monitored by MitoTracker Red staining. The cells were imaged with the 60× objective on the Nikon Eclipse C1Ti confocal microscope equipped with a Ds-Qi1MC CCD camera. The TAT-HAD peptide was added to log phase unstressed wild type MEF cultures for 3 h prior to image acquisition.
A highly conserved region of cyclin C has been identified [Cooper, K. F. and R. Strich, Functional analysis of the Ume3p/Srb11p-RNA polymerase II holoenzyme interaction. Gene Expr, 1999. 8(1): p. 43-57; Cooper, K. F., S. Khakhina, S. K. Kim, and R. Strich, Stress-Induced Nuclear-to-Cytoplasmic Translocation of Cyclin C Promotes Mitochondrial Fission in Yeast, Dev Cell, 2014. 28: p. 161-173.], boxed, FIG. 11A) that is responsible for Med13 binding in yeast. […]

[4] = tested on: Drp1 phosphorylation at the activating serine (Ser616); assay: Drp1 Ser616 phosphorylation in permeabilized CCNC-/- MEF cells treated with GST-cyclin C; assay type: cell-based, mouse
Text: as §3

[5] = tested on: permeabilized CCNC^−/−MEF cells; assay: Mitochondrial fragmentation in digitonin-permeabilized CCNC-/- MEF cells after adding GST fusion proteins (live confocal microscopy); assay type: cell-based, mouse
Procedure: To examine whether cyclin C was sufficient to induce fission or if additional stress-specific signals were required, permeabilized CCNC^−/−MEF cells were used and E. coli purified human GST-cyclin C (Hs GST-cyclin C). The CCNC^−/−null cell line was employed to avoid any contribution from endogenous cyclin C. GST-cyclin C or GST (˜4 nM) was added to digitonin treated cells and mitochondrial morphology was monitored in living cells by confocal microscopy. Images were collected for 18 min at 2 min increments. […] Deconvolved images reveled little detectable changes in mitochondrial morphology in the GST treated cultures up to 18 min (9.3%). […] To determine if this function is conserved, the activity of the yeast cyclin C fused to GST (GST-cyclin C Sc) was also examined. […] To determine if the quantity of GST-cyclin C added was rate limiting, this experiment was repeated with twice the GST-cyclin C Hs concentration as before.

[6] = permeabilized CCNC-/- MEF cells

T1 sequence (Q5SWW4 whole entry): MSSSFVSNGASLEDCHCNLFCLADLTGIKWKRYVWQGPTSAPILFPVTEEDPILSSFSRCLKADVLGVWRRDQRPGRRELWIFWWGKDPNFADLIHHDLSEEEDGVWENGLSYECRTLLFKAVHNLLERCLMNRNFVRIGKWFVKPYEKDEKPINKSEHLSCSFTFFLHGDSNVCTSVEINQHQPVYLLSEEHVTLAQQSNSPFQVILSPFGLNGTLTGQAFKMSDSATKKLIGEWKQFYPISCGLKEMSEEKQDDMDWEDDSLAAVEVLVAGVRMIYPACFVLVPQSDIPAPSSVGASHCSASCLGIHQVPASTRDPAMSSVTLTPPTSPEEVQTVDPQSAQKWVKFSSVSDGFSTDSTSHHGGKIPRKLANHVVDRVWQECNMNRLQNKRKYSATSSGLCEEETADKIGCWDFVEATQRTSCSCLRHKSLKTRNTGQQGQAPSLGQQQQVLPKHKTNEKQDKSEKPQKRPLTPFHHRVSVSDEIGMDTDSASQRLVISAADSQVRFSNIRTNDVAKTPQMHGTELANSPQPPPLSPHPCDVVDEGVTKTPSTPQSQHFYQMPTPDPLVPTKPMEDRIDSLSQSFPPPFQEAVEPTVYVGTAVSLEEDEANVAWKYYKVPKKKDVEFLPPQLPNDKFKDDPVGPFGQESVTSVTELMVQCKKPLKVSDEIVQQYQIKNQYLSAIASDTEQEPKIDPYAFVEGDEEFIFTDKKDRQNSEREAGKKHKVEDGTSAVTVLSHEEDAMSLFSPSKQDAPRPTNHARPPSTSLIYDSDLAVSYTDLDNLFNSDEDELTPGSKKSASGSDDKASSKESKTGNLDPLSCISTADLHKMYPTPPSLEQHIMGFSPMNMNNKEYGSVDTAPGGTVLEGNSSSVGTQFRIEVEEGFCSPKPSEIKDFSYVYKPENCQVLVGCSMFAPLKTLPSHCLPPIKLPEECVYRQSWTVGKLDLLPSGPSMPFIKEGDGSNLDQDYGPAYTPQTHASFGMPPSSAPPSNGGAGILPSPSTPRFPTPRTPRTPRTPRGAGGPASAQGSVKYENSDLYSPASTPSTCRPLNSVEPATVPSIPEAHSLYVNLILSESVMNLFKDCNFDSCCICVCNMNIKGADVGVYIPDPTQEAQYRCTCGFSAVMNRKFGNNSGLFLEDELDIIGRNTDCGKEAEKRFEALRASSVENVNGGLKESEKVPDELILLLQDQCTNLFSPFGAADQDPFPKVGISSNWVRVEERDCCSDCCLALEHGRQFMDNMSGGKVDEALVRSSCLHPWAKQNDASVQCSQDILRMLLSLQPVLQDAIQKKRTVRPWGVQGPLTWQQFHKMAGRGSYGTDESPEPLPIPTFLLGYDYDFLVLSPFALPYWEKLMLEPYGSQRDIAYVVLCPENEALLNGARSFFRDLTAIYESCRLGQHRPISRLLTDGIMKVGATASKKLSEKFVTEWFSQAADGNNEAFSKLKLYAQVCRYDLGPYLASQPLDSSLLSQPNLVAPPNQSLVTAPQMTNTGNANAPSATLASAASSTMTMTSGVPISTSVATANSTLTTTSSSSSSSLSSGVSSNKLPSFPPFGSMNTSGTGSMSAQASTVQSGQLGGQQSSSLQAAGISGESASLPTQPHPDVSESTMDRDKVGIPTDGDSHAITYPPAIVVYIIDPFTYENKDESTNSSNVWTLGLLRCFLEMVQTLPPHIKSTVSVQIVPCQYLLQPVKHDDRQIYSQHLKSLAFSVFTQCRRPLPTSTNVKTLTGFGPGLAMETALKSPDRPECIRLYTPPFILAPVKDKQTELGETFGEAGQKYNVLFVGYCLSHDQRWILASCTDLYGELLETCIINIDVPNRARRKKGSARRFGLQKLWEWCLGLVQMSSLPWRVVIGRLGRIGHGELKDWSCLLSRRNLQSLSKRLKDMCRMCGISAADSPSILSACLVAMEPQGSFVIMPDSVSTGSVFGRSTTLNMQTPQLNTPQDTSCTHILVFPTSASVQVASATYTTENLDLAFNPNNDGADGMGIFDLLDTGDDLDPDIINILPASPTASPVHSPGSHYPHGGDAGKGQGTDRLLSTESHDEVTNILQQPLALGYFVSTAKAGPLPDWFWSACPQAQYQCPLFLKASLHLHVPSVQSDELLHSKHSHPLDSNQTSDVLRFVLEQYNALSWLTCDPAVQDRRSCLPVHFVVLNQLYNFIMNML

Molecule: OO [H2O2]
- cyclin C localization (HeLa cells): translocated from the nucleus to the cytoplasm
- Drp1 phosphorylation at Ser616 [1]: no increase
- cyclin C localization [2]: remained nuclear
- cyclin C relocalization and mitochondrial fission (MCF-10A cells): normal cyclin C relocalization and mitochondrial fission

Molecule: N.N.[Cl][Pt][Cl] [cisplatin]
- cyclin C localization [2]: remained nuclear

Molecule: YGRKKRRQRRRWILDKQDLLKERQKDL (SEQ ID NO:6) (YGRKKRRQRRRWILDKQDLLKERQKDLKFL) [TAT-HAD peptide, HIV TAT basic domain fused to the cyclin C holoenzyme association domain (HAD) peptide]
- time within which the translocation/fragmentation phenotype was lost [3]: ≤ 24 h
- cyclin C localization ([3]; peptide 25 μM, three hours): nuclear to cytoplasmic cyclin C translocation
- mitochondrial morphology ([3]; peptide 25 μM, three hours, MitoTracker Red): abnormal fragmented morphology

B1: GST-cyclin C: E. coli purified human GST-cyclin C (protein, UniProt P24863 1-283, looked up)
Cyclin-C: MAGNFWQSSHYLQWILDKQDLLKERQKDLKFLSEEEYWKLQIFFTNVIQALGEHLKLRQQVIATATVYFKRFYARYSLKSIDPVLMAPTCVFLASKVEEFGVVSNTRLIAAATSVLKTRFSYAFPKEFPYRMNHILECEFYLLELMDCCLIVYHPYRPLLQYVQDMGQEDMLLPLAWRIVNDTYRTDLCLLYPPFMIALACLHVACVVQQKDARQWFAELSVDMEKILEIIRVILKLYEQWKNFDERKEMATILSKMPKPKPPPNSEGEQGPNGSQNSSYSQS
modifications: GST tag
- Drp1 phosphorylation at Ser616 [4, 6]: no increase
- quantitation of the Ser616 phosphorylation signal ([4]; permeabilized cells): reduced
- time to total mitochondrial fragmentation ([5]; twice the GST-cyclin C Hs concentration): ≤ 8 min
- time at which significant mitochondrial fragmentation began ([5]; ~4 nM protein): ≤ 10 min
- percentage of culture exhibiting fragmented mitochondria by 18 min ([5]; ~4 nM protein, digitonin treated cells, 8-10% fragmented prior to treatment): 94%

B2: GST-cyclin C Sc: yeast cyclin C fused to GST (protein, UniProt P47821 1-323, looked up)
RNA polymerase II holoenzyme …: MSGSFWTSTQRHHWQYTKASLAKERQKLWLLECQLFPQGLNIVMDSKQNGIEQSITKNIPITHRDLHYDKDYNLRIYCYFLIMKLGRRLNIRQYALATAHIYLSRFLIKASVREINLYMLVTTCVYLACKVEECPQYIRTLVSEARTLWPEFIPPDPTKVTEFEFYLLEELESYLIVHHPYQSLKQIVQVLKQPPFQITLSSDDLQNCWSLINDSYINDVHLLYPPHIIAVACLFITISIHGKPTKGSSLASAASEAIRDPKNSSSPVQIAFNRFMAESLVDLEEVMDTIQEQITLYDHWDKYHEQWIKFLLHTLYLRPASAI
modifications: GST tag
- efficiency of inducing mitochondrial fission compared with human cyclin C [5, 6]: as efficient inducing mitochondrial fission as the human cyclin C
